Measurements as given in PMC10495343 (2023).

Key:
[1] = molecular target: T1, collagen-binding, serum albumin-fused IL-4 variant (CBD-SA-IL-4) (UniProt P04275); test: SPR
[2] = molecular target: T1, collagen-binding, serum albumin-fused …; test: ELISA

B1: collagen III (natural protein)
chain: QYDSYDVKSGVAVGGLAGYPGPAGPPGPPGPPGTSGHPGSPGSPGYQGPPGEPGQAGPSGPPGPPGAIGPSGPAGKDGESGRPGRPGERGLPGPPGIKGPAGIPGFPGMKGHRGFDGRNGEKGETGAPGLKGENGLPGENGAPGPMGPRGAPGERGRPGLPGAAGARGNDGARGSDGQPGPPGPPGTAGFPGSPGAKGEVGPAGSPGSNGAPGQRGEPGPQGHAGAQGPPGPPGINGSPGGKGEMGPAGIPGAPGLMGARGPPGPAGANGAPGLRGGAGEPGKNGAKGEPGPRGERGEAGIPGVPGAKGEDGKDGSPGEPGANGLPGAAGERGAPGFRGPAGPNGIPGEKGPAGERGAPGPAGPRGAAGEPGRDGVPGGPGMRGMPGSPGGPGSDGKPGPPGSQGESGRPGPPGPSGPRGQPGVMGFPGPKGNDGAPGKNGERGGPGGPGPQGPPGKNGETGPQGPPGPTGPGGDKGDTGPPGPQGLQGLPGTGGPPGENGKPGEPGPKGDAGAPGAPGGKGDAGAPGERGPPGLAGAPGLRGGAGPPGPEGGKGAAGPPGPPGAAGTPGLQGMPGERGGLGSPGPKGDKGEPGGPGADGVPGKDGPRGPTGPIGPPGPAGQPGDKGEGGAPGLPGIAGPRGSPGERGETGPPGPAGFPGAPGQNGEPGGKGERGAPGEKGEGGPPGVAGPPGGSGPAGPPGPQGVKGERGSPGGPGAAGFPGARGLPGPPGSNGNPGPPGPSGSPGKDGPPGPAGNTGAPGSPGVSGPKGDAGQPGEKGSPGAQGPPGAPGPLGIAGITGARGLAGPPGMPGPRGSPGPQGVKGESGKPGANGLSGERGPPGPQGLPGLAGTAGEPGRDGNPGSDGLPGRDGSPGGKGDRGENGSPGAPGAPGHPGPPGPVGPAGKSGDRGESGPAGPAGAPGPAGSRGAPGPQGPRGDKGETGERGAAGIKGHRGFPGNPGAPGSPGPAGQQGAIGSPGPAGPRGPVGPSGPPGKDGTSGHPGPIGPPGPRGNRGERGSEGSPGHPGQPGPPGPPGAPGPCCGGVGAAAIAGIGGEKAGGFAPYYG
koff [1]: 0.0056 s⁻¹

B2: IL-4Rα-Fc (Fc fusion)
chain: IKVLGEPTCFSDYIRTSTCEWFLDSAVDCSSQLCLHYRLMFFEFSENLTCIPRNSASTVCVCHMEMNRPVQSDRYQMELWAEHRQLWQGSFSPSGNVKPLAPDNLTLHTNVSDEWLLTWNNLYPSNNLLYKDLISMVNISREDNPAEFIVYNVTYKEPRLSFPINILMSGVYYTARVRVRSQILTGTWSEWSPSITWYNHFQLPLIQR
Kd [2]: 0.118 nM
